# Assay results: IntAct's records for PubMed 25910212
# B1: Cyclin-dependent kinase 4 inhibitor C (Homo sapiens), P42773 (parent)
# chain: MAEPWGNELASAAARGDLEQLTSLLQNNVNVNAQNGFGRTALQVMKLGNPEIARRLLLRGANPDLKDRTGFAVIHDAARAGFLDTLQTLLEFQADVNIEDNEGNLPLHLAAKEGHLRVVEFLVKHTASNVGHRNHKGDTACDLARLYGRNEVVSLMQANGAGGATNLQ
# B2: Fructose-1,6-bisphosphatase 1 (Homo sapiens), P09467 (parent)
# chain: MADQAPFDTDVNTLTRFVMEEGRKARGTGELTQLLNSLCTAVKAISSAVRKAGIAHLYGIAGSTNVTGDQVKKLDVLSNDLVMNMLKSSFATCVLVSEEDKHAIIVEPEKRGKYVVCFDPLDGSSNIDCLVSVGTIFGIYRKKSTDEPSEKDALQPGRNLVAAGYALYGSATMLVLAMDCGVNCFMLDPAIGEFILVDKDVKIKKKGKIYSLNEGYARDFDPAVTEYIQRKKFPPDNSAPYGARYVGSMVADVHRTLVYGGIFLYPANKKSPNGKLRLLYECNPMAYVMEKAGGMATTGKEAVLDVIPTDIHQRAPVILGSPDDVLEFLKVYEKHSAQ
# partner: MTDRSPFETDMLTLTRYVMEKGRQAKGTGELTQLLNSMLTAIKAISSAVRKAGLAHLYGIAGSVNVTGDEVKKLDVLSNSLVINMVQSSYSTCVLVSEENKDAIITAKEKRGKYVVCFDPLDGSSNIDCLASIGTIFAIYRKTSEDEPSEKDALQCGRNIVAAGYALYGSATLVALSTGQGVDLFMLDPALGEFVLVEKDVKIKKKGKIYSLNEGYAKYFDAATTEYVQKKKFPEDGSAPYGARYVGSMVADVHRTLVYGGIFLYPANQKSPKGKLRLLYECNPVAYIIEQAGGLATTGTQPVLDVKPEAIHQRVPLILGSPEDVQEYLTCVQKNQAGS
# B3: E3 ubiquitin-protein ligase TRIM32 (Homo sapiens), Q13049 (parent)
# chain: MAAAAASHLNLDALREVLECPICMESFTEEQLRPKLLHCGHTICRQCLEKLLASSINGVRCPFCSKITRITSLTQLTDNLTVLKIIDTAGLSEAVGLLMCRSCGRRLPRQFCRSCGLVLCEPCREADHQPPGHCTLPVKEAAEERRRDFGEKLTRLRELMGELQRRKAALEGVSKDLQARYKAVLQEYGHEERRVQDELARSRKFFTGSLAEVEKSNSQVVEEQSYLLNIAEVQAVSRCDYFLAKIKQADVALLEETADEEEPELTASLPRELTLQDVELLKVGHVGPLQIGQAVKKPRTVNVEDSWAMEATASAASTSVTFREMDMSPEEVVASPRASPAKQRGPEAASNIQQCLFLKKMGAKGSTPGMFNLPVSLYVTSQGEVLVADRGNYRIQVFTRKGFLKEIRRSPSGIDSFVLSFLGADLPNLTPLSVAMNCQGLIGVTDSYDNSLKVYTLDGHCVACHRSQLSKPWGITALPSGQFVVTDVEGGKLWCFTVDRGSGVVKYSCLCSAVRPKFVTCDAEGTVYFTQGLGLNLENRQNEHHLEGGFSIGSVGPDGQLGRQISHFFSENEDFRCIAGMCVDARGDLIVADSSRKEILHFPKGGGYSVLIREGLTCPVGIALTPKGQLLVLDCWDHCIKIYSYHLRRYSTP
# B4: Adenosylhomocysteinase (Homo sapiens), P23526 (parent)
# chain: MSDKLPYKVADIGLAAWGRKALDIAENEMPGLMRMRERYSASKPLKGARIAGCLHMTVETAVLIETLVTLGAEVQWSSCNIFSTQDHAAAAIAKAGIPVYAWKGETDEEYLWCIEQTLYFKDGPLNMILDDGGDLTNLIHTKYPQLLPGIRGISEETTTGVHNLYKMMANGILKVPAINVNDSVTKSKFDNLYGCRESLIDGIKRATDVMIAGKVAVVAGYGDVGKGCAQALRGFGARVIITEIDPINALQAAMEGYEVTTMDEACQEGNIFVTTTGCIDIILGRHFEQMKDDAIVCNIGHFDVEIDVKWLNENAVEKVNIKPQVDRYRLKNGRRIILLAEGRLVNLGCAMGHPSFVMSNSFTNQVMAQIELWTHPDKYPVGVHFLPKKLDEAVAEAHLGKLNVKLTKLTEKQAQYLGMSCDGPFKPDHYRY
# B5: Keratin, type II cytoskeletal 2 epidermal (Homo sapiens), P35908 (parent)
# chain: MSCQISCKSRGRGGGGGGFRGFSSGSAVVSGGSRRSTSSFSCLSRHGGGGGGFGGGGFGSRSLVGLGGTKSISISVAGGGGGFGAAGGFGGRGGGFGGGSSFGGGSGFSGGGFGGGGFGGGRFGGFGGPGGVGGLGGPGGFGPGGYPGGIHEVSVNQSLLQPLNVKVDPEIQNVKAQEREQIKTLNNKFASFIDKVRFLEQQNQVLQTKWELLQQMNVGTRPINLEPIFQGYIDSLKRYLDGLTAERTSQNSELNNMQDLVEDYKKKYEDEINKRTAAENDFVTLKKDVDNAYMIKVELQSKVDLLNQEIEFLKVLYDAEISQIHQSVTDTNVILSMDNSRNLDLDSIIAEVKAQYEEIAQRSKEEAEALYHSKYEELQVTVGRHGDSLKEIKIEISELNRVIQRLQGEIAHVKKQCKNVQDAIADAEQRGEHALKDARNKLNDLEEALQQAKEDLARLLRDYQELMNVKLALDVEIATYRKLLEGEECRMSGDLSSNVTVSVTSSTISSNVASKAAFGGSGGRGSSSGGGYSSGSSSYGSGGRQSGSRGGSGGGGSISGGGYGSGGGSGGRYGSGGGSKGGSISGGGYGSGGGKHSSGGGSRGGSSSGGGYGSGGGGSSSVKGSSGEAFGSSVTFSFR
# B6: Keratin, type II cytoskeletal 6A (Homo sapiens), P02538 (parent)
# chain: MASTSTTIRSHSSSRRGFSANSARLPGVSRSGFSSVSVSRSRGSGGLGGACGGAGFGSRSLYGLGGSKRISIGGGSCAISGGYGSRAGGSYGFGGAGSGFGFGGGAGIGFGLGGGAGLAGGFGGPGFPVCPPGGIQEVTVNQSLLTPLNLQIDPTIQRVRAEEREQIKTLNNKFASFIDKVRFLEQQNKVLETKWTLLQEQGTKTVRQNLEPLFEQYINNLRRQLDSIVGERGRLDSELRGMQDLVEDFKNKYEDEINKRTAAENEFVTLKKDVDAAYMNKVELQAKADTLTDEINFLRALYDAELSQMQTHISDTSVVLSMDNNRNLDLDSIIAEVKAQYEEIAQRSRAEAESWYQTKYEELQVTAGRHGDDLRNTKQEIAEINRMIQRLRSEIDHVKKQCANLQAAIADAEQRGEMALKDAKNKLEGLEDALQKAKQDLARLLKEYQELMNVKLALDVEIATYRKLLEGEECRLNGEGVGQVNISVVQSTVSSGYGGASGVGSGLGLGGGSSYSYGSGLGVGGGFSSSSGRAIGGGLSSVGGGSSTIKYTTTSSSSRKSYKH
# partner: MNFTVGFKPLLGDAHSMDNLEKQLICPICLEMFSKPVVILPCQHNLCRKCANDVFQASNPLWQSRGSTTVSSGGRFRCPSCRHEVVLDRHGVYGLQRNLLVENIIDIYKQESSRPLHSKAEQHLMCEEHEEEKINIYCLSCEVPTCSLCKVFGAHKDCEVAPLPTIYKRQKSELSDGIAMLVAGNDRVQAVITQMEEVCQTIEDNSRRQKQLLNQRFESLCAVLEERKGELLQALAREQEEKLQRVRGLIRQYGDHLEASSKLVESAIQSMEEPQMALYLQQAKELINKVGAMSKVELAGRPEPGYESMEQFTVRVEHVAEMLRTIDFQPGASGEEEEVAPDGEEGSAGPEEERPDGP
# Variants of: B1
# Conditions: with cdk6_human CDK6, Q00534
# Chain of cdk6_human CDK6, Q00534 (Q00534 whole entry): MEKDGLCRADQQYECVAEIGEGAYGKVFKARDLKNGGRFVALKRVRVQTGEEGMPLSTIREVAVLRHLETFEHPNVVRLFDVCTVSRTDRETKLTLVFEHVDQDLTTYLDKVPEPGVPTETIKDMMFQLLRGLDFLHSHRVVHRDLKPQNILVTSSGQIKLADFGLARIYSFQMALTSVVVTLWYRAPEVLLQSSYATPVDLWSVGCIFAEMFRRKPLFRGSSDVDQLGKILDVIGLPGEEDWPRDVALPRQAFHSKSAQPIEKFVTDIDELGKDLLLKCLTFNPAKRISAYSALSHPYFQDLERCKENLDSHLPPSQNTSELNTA
row,Variant,effect of a mutation on the interaction
1,V31L,with no effect

# Variants of: B1
# Conditions: with TCF12, Q99081-3
# Chain of TCF12, Q99081-3 (Q99081 other isoform, or with tags, fused parts or gaps): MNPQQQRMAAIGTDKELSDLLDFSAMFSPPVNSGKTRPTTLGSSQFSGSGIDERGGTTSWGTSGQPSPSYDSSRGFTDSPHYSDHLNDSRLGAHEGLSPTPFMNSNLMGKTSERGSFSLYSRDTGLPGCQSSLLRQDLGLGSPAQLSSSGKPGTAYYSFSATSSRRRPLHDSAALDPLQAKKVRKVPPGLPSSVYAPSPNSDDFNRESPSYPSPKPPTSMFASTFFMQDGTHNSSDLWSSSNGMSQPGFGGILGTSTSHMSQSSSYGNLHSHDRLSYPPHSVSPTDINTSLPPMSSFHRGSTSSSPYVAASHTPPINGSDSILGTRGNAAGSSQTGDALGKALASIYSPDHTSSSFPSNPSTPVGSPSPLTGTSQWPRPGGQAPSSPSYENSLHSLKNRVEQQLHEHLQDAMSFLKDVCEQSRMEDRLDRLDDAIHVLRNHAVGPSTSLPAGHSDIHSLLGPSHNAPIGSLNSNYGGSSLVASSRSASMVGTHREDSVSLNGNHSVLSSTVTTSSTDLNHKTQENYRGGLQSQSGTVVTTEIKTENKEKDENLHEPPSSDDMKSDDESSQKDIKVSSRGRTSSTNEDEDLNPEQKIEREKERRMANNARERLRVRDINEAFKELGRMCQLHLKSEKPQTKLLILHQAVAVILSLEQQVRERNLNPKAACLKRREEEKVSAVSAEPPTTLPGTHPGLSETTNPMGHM
row,Variant,effect of a mutation on the interaction
1,V31L,disrupting interaction strength

# Variants of: B1
# Conditions: with NAGK
row,Variant,effect of a mutation on the interaction
1,V31L,disrupting interaction strength

# Variants of: B1
# Conditions: with sahh2_human AHCYL1, O43865
# Chain of sahh2_human AHCYL1, O43865 (O43865 whole entry): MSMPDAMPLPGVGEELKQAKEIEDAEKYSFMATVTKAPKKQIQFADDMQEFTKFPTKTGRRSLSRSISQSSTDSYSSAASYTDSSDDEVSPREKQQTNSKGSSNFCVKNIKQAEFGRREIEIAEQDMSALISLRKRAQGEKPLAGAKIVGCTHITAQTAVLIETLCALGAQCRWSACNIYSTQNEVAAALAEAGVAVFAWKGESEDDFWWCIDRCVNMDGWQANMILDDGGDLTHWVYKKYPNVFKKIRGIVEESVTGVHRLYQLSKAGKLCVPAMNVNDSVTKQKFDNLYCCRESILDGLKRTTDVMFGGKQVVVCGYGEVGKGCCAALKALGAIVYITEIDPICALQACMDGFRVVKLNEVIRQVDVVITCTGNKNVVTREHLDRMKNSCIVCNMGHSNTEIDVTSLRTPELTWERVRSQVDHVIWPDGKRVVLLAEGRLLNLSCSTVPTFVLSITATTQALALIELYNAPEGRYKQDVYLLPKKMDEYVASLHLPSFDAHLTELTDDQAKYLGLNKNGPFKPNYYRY
row,Variant,effect of a mutation on the interaction
1,V31L,disrupting interaction strength

# Variants of: B1
# Conditions: with TCF4, P15884-3
# Chain of TCF4, P15884-3 (P15884 other isoform, or with tags, fused parts or gaps): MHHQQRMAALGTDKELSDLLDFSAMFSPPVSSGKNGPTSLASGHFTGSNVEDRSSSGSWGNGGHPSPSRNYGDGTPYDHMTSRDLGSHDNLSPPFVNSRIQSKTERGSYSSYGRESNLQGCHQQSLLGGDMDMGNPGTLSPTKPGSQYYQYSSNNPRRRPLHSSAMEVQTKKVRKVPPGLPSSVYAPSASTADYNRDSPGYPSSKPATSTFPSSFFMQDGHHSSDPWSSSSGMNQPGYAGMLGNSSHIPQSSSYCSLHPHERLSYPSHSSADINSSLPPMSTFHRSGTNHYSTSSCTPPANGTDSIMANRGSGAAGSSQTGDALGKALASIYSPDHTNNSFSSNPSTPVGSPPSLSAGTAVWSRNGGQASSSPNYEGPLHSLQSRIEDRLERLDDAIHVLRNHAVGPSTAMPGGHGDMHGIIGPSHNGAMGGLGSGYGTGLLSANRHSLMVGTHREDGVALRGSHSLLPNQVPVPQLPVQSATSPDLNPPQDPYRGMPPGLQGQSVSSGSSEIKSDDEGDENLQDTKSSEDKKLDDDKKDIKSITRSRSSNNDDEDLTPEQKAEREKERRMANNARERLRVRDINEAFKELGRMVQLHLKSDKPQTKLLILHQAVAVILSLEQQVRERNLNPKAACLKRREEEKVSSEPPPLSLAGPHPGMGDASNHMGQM
row,Variant,effect of a mutation on the interaction
1,V31L,disrupting interaction strength

# Variants of: B2
# Conditions: with FBP2, O00757
row,Variant,effect of a mutation on the interaction
1,N213K,with no effect
2,G164S,with no effect
3,G260R,with no effect
4,F194S,with no effect

# Variants of: B2
# Conditions: with FBP2, O00757
# Remark: another data set of the same source
row,Variant,effect of a mutation on the interaction
1,F233I,with no effect
2,R218K,with no effect
3,G260R,disrupting interaction strength
4,F194S,disrupting interaction strength

# Variants of: B3
# Conditions: with PDE9A
row,Variant,effect of a mutation on the interaction
1,D487N,disrupting interaction strength
2,P130S,with no effect
3,R394H,disrupting interaction strength

# Variants of: B3
# Conditions: with praf1_human RABAC1, Q9UI14
# Chain of praf1_human RABAC1, Q9UI14 (Q9UI14 whole entry): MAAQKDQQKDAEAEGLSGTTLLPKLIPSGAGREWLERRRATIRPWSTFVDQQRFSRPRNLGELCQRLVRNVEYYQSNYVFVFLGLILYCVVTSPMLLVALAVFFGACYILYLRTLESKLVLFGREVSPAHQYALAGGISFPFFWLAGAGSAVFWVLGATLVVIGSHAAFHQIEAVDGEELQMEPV
row,Variant,effect of a mutation on the interaction
1,D487N,disrupting interaction strength
2,P130S,with no effect
3,R394H,disrupting interaction strength

# Variants of: B3
# Conditions: with ABI2, Q9NYB9-2
# Chain of ABI2, Q9NYB9-2 (Q9NYB9 other isoform, or with tags, fused parts or gaps): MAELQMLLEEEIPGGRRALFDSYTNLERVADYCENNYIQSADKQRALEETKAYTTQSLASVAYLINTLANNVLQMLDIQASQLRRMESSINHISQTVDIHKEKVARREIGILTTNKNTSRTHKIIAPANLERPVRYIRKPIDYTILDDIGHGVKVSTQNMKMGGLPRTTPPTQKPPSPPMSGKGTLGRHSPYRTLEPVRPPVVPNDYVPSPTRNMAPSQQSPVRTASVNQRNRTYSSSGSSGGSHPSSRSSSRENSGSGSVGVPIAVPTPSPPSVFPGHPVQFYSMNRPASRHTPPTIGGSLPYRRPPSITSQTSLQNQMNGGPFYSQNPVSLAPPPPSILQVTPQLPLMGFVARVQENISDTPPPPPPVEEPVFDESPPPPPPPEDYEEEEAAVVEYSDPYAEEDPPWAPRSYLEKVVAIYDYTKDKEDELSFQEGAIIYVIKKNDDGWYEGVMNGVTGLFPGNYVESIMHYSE
row,Variant,effect of a mutation on the interaction
1,D487N,disrupting interaction strength
2,P130S,with no effect
3,R394H,disrupting interaction strength

# Variants of: B3
# Conditions: with PDE9A
# Remark: another data set of the same source
row,Variant,effect of a mutation on the interaction
1,R394H,with no effect

# Variants of: B4
# Conditions: with ca050_human C1orf50, Q9BV19
# Chain of ca050_human C1orf50, Q9BV19 (Q9BV19 whole entry): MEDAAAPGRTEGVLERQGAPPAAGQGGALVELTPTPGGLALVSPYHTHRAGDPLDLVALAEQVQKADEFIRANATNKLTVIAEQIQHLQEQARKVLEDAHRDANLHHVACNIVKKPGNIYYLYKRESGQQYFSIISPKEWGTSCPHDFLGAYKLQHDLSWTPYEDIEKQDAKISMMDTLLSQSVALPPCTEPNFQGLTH
row,Variant,effect of a mutation on the interaction
1,A89V,with no effect
2,Y143C,with no effect
3,D86G,with no effect

# Variants of: B4
# Conditions: with ca050_human C1orf50, Q9BV19
# Remark: another data set of the same source
row,Variant,effect of a mutation on the interaction
1,D86G,disrupting interaction strength

# Variants of: B5
# Conditions: with KRT15, P19012
# Chain of KRT15, P19012 (P19012 whole entry): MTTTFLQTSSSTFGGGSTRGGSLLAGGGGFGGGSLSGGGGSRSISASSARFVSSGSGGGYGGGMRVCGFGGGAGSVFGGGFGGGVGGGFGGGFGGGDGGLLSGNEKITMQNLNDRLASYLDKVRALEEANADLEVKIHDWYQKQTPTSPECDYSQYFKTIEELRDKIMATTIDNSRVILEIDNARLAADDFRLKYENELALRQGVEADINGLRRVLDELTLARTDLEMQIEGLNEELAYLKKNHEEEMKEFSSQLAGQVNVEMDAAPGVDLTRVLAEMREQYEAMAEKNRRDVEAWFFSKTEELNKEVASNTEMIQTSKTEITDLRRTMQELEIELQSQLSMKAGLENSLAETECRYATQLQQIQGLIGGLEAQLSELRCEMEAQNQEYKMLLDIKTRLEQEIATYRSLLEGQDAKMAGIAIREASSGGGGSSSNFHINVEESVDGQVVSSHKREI
row,Variant,effect of a mutation on the interaction
1,G219D,with no effect

# Variants of: B5
# Conditions: with KRT40, Q6A162
# Chain of KRT40, Q6A162 (Q6A162 whole entry): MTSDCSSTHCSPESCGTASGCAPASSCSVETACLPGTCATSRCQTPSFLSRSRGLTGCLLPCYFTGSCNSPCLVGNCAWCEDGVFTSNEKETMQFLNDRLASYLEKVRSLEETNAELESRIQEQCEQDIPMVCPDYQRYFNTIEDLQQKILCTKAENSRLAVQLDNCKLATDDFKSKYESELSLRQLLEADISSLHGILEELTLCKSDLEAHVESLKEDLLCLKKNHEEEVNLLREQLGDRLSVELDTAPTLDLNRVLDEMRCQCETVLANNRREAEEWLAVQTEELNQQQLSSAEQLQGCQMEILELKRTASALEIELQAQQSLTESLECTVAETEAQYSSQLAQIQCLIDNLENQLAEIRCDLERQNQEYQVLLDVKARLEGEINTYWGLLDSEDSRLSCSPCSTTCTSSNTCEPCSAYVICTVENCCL
row,Variant,effect of a mutation on the interaction
1,G219D,with no effect
2,L484P,disrupting interaction strength

# Variants of: B5
# Conditions: with KRT19, P08727
# Chain of KRT19, P08727 (P08727 whole entry): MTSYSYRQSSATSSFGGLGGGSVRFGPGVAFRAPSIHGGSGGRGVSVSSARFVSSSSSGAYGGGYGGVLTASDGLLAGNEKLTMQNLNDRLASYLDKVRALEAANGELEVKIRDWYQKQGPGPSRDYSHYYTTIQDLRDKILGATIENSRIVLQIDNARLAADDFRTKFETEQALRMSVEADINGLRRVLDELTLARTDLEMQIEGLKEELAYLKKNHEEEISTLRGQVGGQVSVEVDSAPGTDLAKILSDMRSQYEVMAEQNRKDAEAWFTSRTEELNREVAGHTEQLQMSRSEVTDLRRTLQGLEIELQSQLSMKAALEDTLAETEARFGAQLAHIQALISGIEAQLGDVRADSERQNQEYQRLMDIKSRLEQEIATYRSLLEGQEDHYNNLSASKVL
row,Variant,effect of a mutation on the interaction
1,G219D,with no effect
2,N186K,with no effect
3,L484P,with no effect
4,I477N,disrupting interaction strength

# Variants of: B5
# Conditions: with k1h1_human KRT31, Q15323
# Chain of k1h1_human KRT31, Q15323 (Q15323 whole entry): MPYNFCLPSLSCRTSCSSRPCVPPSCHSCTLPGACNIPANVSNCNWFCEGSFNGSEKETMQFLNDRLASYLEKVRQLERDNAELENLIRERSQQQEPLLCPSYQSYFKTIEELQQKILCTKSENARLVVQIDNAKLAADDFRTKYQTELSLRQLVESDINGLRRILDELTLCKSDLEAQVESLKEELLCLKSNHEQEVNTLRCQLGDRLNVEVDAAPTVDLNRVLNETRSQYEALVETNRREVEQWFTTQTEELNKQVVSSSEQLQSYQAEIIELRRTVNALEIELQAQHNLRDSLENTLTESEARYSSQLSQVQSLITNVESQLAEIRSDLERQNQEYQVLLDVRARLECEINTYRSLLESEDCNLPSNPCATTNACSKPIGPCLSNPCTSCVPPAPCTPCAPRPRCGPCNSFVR
row,Variant,effect of a mutation on the interaction
1,G219D,with no effect
2,L484P,with no effect
3,I477N,with no effect

# Variants of: B5
# Conditions: with KRT15, P19012
# Remark: another data set of the same source
row,Variant,effect of a mutation on the interaction
1,N186K,with no effect
2,L484P,with no effect
3,I477N,with no effect

# Variants of: B5
# Conditions: with KRT40, Q6A162
# Remark: another data set of the same source
row,Variant,effect of a mutation on the interaction
1,N186K,with no effect
2,L484P,with no effect
3,I477N,disrupting interaction strength

# Variants of: B5
# Conditions: with k1h1_human KRT31, Q15323
# Remark: another data set of the same source
row,Variant,effect of a mutation on the interaction
1,N186K,with no effect
2,L484P,disrupting interaction strength
3,I477N,disrupting interaction strength

# Variants of: B6
# Conditions: with tri54_human TRIM54, Q9BYV2
row,Variant,effect of a mutation on the interaction
1,N171K,with no effect
2,F174V,with no effect
3,I462S,with no effect
4,F249L,with no effect

# Variants of: B6
# Conditions: with tri54_human TRIM54, Q9BYV2
# Remark: another data set of the same source
row,Variant,effect of a mutation on the interaction
1,F174V,causing an interaction
